Test results taken from patent US7932362B2, “Antibodies to NRIF3 proteins” (New York University, priority 1999, dated 2011).

T1: cTRα (Gallus gallus, UniProt P04625)
T1 sequence (P04625 1-408): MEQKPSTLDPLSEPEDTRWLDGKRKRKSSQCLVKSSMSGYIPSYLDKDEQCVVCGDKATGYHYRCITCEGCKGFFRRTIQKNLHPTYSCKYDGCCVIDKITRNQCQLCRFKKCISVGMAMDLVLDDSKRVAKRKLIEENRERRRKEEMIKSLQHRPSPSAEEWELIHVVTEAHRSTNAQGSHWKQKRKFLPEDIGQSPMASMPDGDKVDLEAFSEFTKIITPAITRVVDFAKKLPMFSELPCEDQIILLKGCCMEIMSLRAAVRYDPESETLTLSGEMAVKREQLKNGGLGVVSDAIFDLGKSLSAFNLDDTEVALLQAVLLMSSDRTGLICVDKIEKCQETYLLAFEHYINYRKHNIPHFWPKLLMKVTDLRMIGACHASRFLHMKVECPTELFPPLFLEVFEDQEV

B1: EnL: β3-endonexin long form, 170 amino acids, alternatively spliced product of the same gene as NRIF3 (protein)
chain: MPVKRSLKLDGLLEENSFDPSKITRKKSVITYSPTTGTCQMSLFASPTSSEEQKHRNGLSNEKRKKLNHPSLTESKESTTKDNDEFMMLLSKVEKLSEEIMEIMQNLSSIQALEGSRELENLIGISCASHFLKREMQKTKELMTKVNKQKLFEKSTGLPHKGQPQMSPQL
B2: EnS: β3-endonexin short form, 111 amino acids, identical to the first 111 residues of NRIF3 (protein)
chain: MPVKRSLKLDGLLEENSFDPSKITRKKSVITYSPTTGTCQMSLFASPTSSEEQKHRNGLSNEKRKKLNHPSLTESKESTTKDNDEFMMLLSKVEKLSEEIMEIMQNLSSIQ

Tests used:
[1] = molecular target: T1, cTRα; test: Transfection study, CAT reporter in HeLa cells, TR-mediated transactivation; format: cell-based, chicken; details: IR-ΔMTV-CAT reporter, 1 μM T3, FIG. 5A
Text: (§1) Transfection studies. Most reporters used in this study have been described previously, including IR-ΔMTV-CAT, DR4-ΔMTV-CAT, GH-TRE-tk-CAT, IR+3 (ERE)-ΔMTV-CAT (5, 25, 78). A DR1-ΔMTV-CAT reporter responsive to RXR was obtained from Ron Evans. A GRE/PRE-tk-CAT reporter was obtained from Gunther Schutz. The (IR)2-TATA-CAT was constructed in our laboratory by cloning two copies of the IR sequence (AGGTCA TGACCT) upstream of a TATA element derived from the tk promoter. A hVDR expression vector and the VDRE-ΔMTV-CAT containing the VDRE from the osteocalcin promoter were obtained from J. Wesley Pike. Vectors expressing cTRα, hRARα, hRXRα, rGR, hPR, and hER have been described previously (17, 25, 26, 50, 53, 81). The NRIF3 expression vector was constructed by cloning full length NRIF3 into a pExpress vector (25). Appropriate plasmids were transfected into HeLa cells by calcium phosphate co-precipitation using 25-100 ng of the receptors, 250-500 ng of the CAT reporters, and 750 ng of the NRIF3 or control pExpress vector. After transfection, cells were incubated at 37° C. (with or without cognate ligands) for 42 hours before being harvested. […] Relative CAT activity was determined as the percent acetylation of substrate per 30 μg of cell protein in a 15 hour incubation at 37° C. The results were calculated from duplicate or quadruplicate samples and the variation among samples was less than 10%.

[2] = test system: B42-RAR LBD; test: Yeast two-hybrid assay, LexA-NCD bait with prey B42-RAR LBD; format: cell-based, human; details: cognate ligand, FIG. 11
B42-RAR LBD, sequence (P10276 183-417 limits assumed): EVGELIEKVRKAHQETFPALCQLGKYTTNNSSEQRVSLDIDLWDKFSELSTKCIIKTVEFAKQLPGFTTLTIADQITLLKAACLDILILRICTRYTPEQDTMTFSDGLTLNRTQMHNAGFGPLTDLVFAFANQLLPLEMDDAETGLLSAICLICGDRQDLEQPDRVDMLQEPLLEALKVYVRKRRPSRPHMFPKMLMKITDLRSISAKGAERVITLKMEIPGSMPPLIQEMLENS
Experimental: The following receptor baits were used: LexA-cTRα LBD, LexA-hTRβ LBD, LexA-hRARα LBD, LexA-hRXRα LBD, and LexA-hGR LBD. The NRIF3 C-terminal domain (NCD) was fused in frame with the LexA DBD and examined for interaction with receptor LBDs using the following preys: B42-cTRα LBD, B42-hRARα LBD, and B42-hRXRα LBD expressed from pJG4-5. Yeast cells harboring appropriate plasmids were grown in selective media with Gal/Raf in the presence or absence of cognate ligand (1 μM T3 for TR, all trans or 9-cis RA for RAR, 9-cis RA for RXR, and 10 μM deoxycorticosterone for GR) overnight before β-galactosidase activity was assayed using o-Nitrophenyl β-D-Galactopyranoside as the substrate. β-galactosidase units are expressed as (O.D. 420 nm×1000)/(minutes of incubation×O.D. 600 nm of yeast suspension).
To construct the bait plasmid expressing LexA-NCD, a derivative of pEG202 (which contains a new polylinker) plasmid was digested with NcoI and XhoI and ligated to synthetic oligonucleotides that encode the last 16 amino acids of NRIF3 (residues 162-177). Similarly, mutant NCD was generated by using oligonucleotides that contain the designed mutations in the ligation reaction. All constructs were confirmed by sequence analysis. […]

[3] = test system: endogenous RAR(s); test: Transfection study, CAT reporter in HeLa cells, endogenous RAR(s); format: cell-based, human; details: 1 μM, HeLa cells without receptor expression vector, FIG. 6A
Text: as §1

[4] = molecular target: LexA-TR (Gallus gallus, UniProt P04625); details: yeast two-hybrid, 1 μM T3, FIG. 8B
[5] = molecular target: LexA-RXR (Homo sapiens, UniProt P19793); details: yeast two-hybrid, 1 μM 9-cis RA, FIG. 8B
LexA-RXR, sequence (P19793 227-462): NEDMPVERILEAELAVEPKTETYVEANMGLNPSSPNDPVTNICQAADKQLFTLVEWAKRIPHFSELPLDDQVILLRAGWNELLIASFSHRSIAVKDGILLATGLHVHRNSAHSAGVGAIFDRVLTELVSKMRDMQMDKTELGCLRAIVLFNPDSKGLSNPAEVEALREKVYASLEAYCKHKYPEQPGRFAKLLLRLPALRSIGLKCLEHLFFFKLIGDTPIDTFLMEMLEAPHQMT

[6] = test system: receptor-mediated transcription; test: Transfection studies with endonexins (data not shown); format: cell-based
Text: as §1

Molecule	interaction with liganded TR [4]	interaction with liganded RXR [5]	effect on receptor-mediated transcription [6]	other results
CBP: reported co-activator for nuclear receptors, used as a control	–	–	–	enhancement of TR-mediated activation of the CAT reporter [1]: around 3 fold
NCD: C-terminal domain of NRIF3, amino acids 162-177; docked as 17-residue peptide KASRHLDSYEFLKAILN (SEQ ID NO:7) (C-terminal peptide of NRIF3)	–	–	–	interaction with the LBD of RAR [2]: interact efficiently
C/C(=C\c1ccc(C(=O)O)cc1)c1ccc2c(c1)C(C)(C)CCC2(C)C [TTNPB]	–	–	–	activation of the IR-ΔMTV-CAT reporter by ligand [3]: activates
B1	completely abolished	completely abolished	little effect	–
B2	completely abolished	completely abolished	little effect	–
